From the supplement of paper PMC7125110
± gives the standard error. Fewer inactive variants are shown than the library holds.

B1: glmS ribozyme (parent)
chain: AUAAAAGCGCCAGAACUACAGAAAUGUAGUUGACGAGGAGGAGGUUUAUCGAAUUUUCGGCGGAUGCCUCCAAA

Columns and labels:
Conditions in all cases: with glucosamine-6-phosphate
glucosamine-6-phosphate [1] = variants of: B1; test: self-cleavage kobs at 160 uM GlcN6P; higher = faster cleavage; RNA array
Outline: (§1)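 Tiles bearing barcoded ribozyme variants, transcribed in situ by E. coli RNA polymerase on sequenced MiSeq chips, were imaged over ~14 h at 37 °C using a hybridised Cy3 probe. Glucosamine-6-phosphate was supplied at 40 μM to 10 mM in HEPES/KCl/Mg(OAc)2 buffer. kobs came from one- or two-exponential decay fits to normalised per-tile medians, and weighted Michaelis–Menten fits then provided kcat and KM.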

glucosamine-6-phosphate [2] = variants of: B1; test: self-cleavage kobs at 2500 uM GlcN6P; higher = faster cleavage; RNA array
Outline: as §1

glucosamine-6-phosphate [3] = variants of: B1; test: self-cleavage kobs at 640 uM GlcN6P; higher = faster cleavage; RNA array
Outline: as §1

glucosamine-6-phosphate [4] = variants of: B1; test: self-cleavage kobs at 10000 uM GlcN6P; higher = faster cleavage; RNA array
Outline: as §1

Variant: AUAAAAGGGCCAGAACUACAGAAAUGUAGUUGACGAGGAGGAGGUUUAUCGAAUUUUCAGCGGAUGCCUCGAAA
- self-cleavage kobs at 160 uM GlcN6P (glucosamine-6-phosphate [1]): < 1e-05 s⁻¹

Variant: AUAAAAGAGCCAGAACUACAGAAAUGUAGUGGACGAGGAGGAGGUUUAUCGAAUUUUCGGCAGAUGCCUCCAAA
- self-cleavage kobs at 160 uM GlcN6P (glucosamine-6-phosphate [1]): < 1e-05 s⁻¹
- self-cleavage kobs at 2500 uM GlcN6P (glucosamine-6-phosphate [2]): < 1e-05 s⁻¹

Variant: AUAAAAGAGCCAGAACUACAGAAAUGUAGUCGACGAGGAGGAGGUUUUUCAAAUUUUCCGCGGAUGCCUCCAAA
- self-cleavage kobs at 160 uM GlcN6P (glucosamine-6-phosphate [1]): < 1e-05 s⁻¹
- self-cleavage kobs at 640 uM GlcN6P (glucosamine-6-phosphate [3]): < 1e-05 s⁻¹
- self-cleavage kobs at 2500 uM GlcN6P (glucosamine-6-phosphate [2]): < 1e-05 s⁻¹

Variant: AUAAAAGGGCCAGAACUACAGAAAUGUAGAUGACGAGGAUGAGGUUUAUCGAAUUUUCGGCGGAUGCCUCCAAA
- self-cleavage kobs at 160 uM GlcN6P (glucosamine-6-phosphate [1]): < 1e-05 s⁻¹
- self-cleavage kobs at 2500 uM GlcN6P (glucosamine-6-phosphate [2]): < 1e-05 s⁻¹

Variant: AUAAAAGGGCCAGAACUACAGAAAUGUAGUUGACGAGGAGGAGGUUGAUCGAAAUUUCGGCGUAUGCCUCCAAA
- self-cleavage kobs at 160 uM GlcN6P (glucosamine-6-phosphate [1]): < 1e-05 s⁻¹
- self-cleavage kobs at 640 uM GlcN6P (glucosamine-6-phosphate [3]): < 1e-05 s⁻¹
- self-cleavage kobs at 2500 uM GlcN6P (glucosamine-6-phosphate [2]): < 1e-05 s⁻¹

Variant: AUAAAAGGGCCAGAACUACAGAAAUGUAGUUGACUAGGAGGAGGUUUAUCGAAUUUUCGGCGGAUACCUCCAAA
- self-cleavage kobs at 160 uM GlcN6P (glucosamine-6-phosphate [1]): < 1e-05 s⁻¹
- self-cleavage kobs at 640 uM GlcN6P (glucosamine-6-phosphate [3]): < 1e-05 s⁻¹

Variant: AUAAAAGGGCCACAACUACAGAAAUGUAGGUGACGAGGAGGAGGUUUAUCGAAUUUUCGGCGGAUGCGUGCAAA
- self-cleavage kobs at 160 uM GlcN6P (glucosamine-6-phosphate [1]): 0.000998 ± 0.00044 s⁻¹

Variant: AUAAAAGAGCCAGAACUACAGAAAUGUAGUUGACGAGGAGGAGGUUUAUCGAAUUUACGGCGGAUGCCUCCAAA
- self-cleavage kobs at 160 uM GlcN6P (glucosamine-6-phosphate [1]): < 1e-05 s⁻¹
- self-cleavage kobs at 640 uM GlcN6P (glucosamine-6-phosphate [3]): < 1e-05 s⁻¹
- self-cleavage kobs at 2500 uM GlcN6P (glucosamine-6-phosphate [2]): < 1e-05 s⁻¹
- self-cleavage kobs at 10000 uM GlcN6P (glucosamine-6-phosphate [4]): < 1e-05 s⁻¹

Variant: AUAAAAGUGCCAGUACUACAGAAAUGUAGUUGACGAUGAGUAGGUUUAUCGAAUUUUCGGCGGAUGCCUCCAAA
- self-cleavage kobs at 160 uM GlcN6P (glucosamine-6-phosphate [1]): < 1e-05 s⁻¹
- self-cleavage kobs at 640 uM GlcN6P (glucosamine-6-phosphate [3]): < 1e-05 s⁻¹
- self-cleavage kobs at 2500 uM GlcN6P (glucosamine-6-phosphate [2]): < 1e-05 s⁻¹

Variant: AUAAAAGGGCCAGAACUACAGAAAUGUAGUUGACGAGGAGGAGGUUUAUCGAAUUUCCGGCUGAUGCCUCCAAA
- self-cleavage kobs at 160 uM GlcN6P (glucosamine-6-phosphate [1]): < 1e-05 s⁻¹
- self-cleavage kobs at 640 uM GlcN6P (glucosamine-6-phosphate [3]): < 1e-05 s⁻¹
- self-cleavage kobs at 2500 uM GlcN6P (glucosamine-6-phosphate [2]): < 1e-05 s⁻¹
- self-cleavage kobs at 10000 uM GlcN6P (glucosamine-6-phosphate [4]): < 1e-05 s⁻¹

Variant: AUAAAAGAGCCAGAACUACAGAAAUGUAGAUGACGAUGAGGAGGUUUAUCGAAUUUUAGGCGGAUGCCUCCAAA
- self-cleavage kobs at 160 uM GlcN6P (glucosamine-6-phosphate [1]): < 1e-05 s⁻¹

Variant: AUAAAAGUGCCAGAGCUACAGAAAUGUAAUUGACGAGGAGGAGGUUUAUCGAAUUUUCGGCGGAUGCCUCCAAA
- self-cleavage kobs at 160 uM GlcN6P (glucosamine-6-phosphate [1]): < 1e-05 s⁻¹
- self-cleavage kobs at 640 uM GlcN6P (glucosamine-6-phosphate [3]): < 1e-05 s⁻¹
- self-cleavage kobs at 2500 uM GlcN6P (glucosamine-6-phosphate [2]): < 1e-05 s⁻¹

Variant: AUAAAAGGGCCAGAACUACAGAAAUGUAGUUGACGAGGAGGAGGUUUAUCGAAUUUUAGGCGGAUGACUCCAAA
- self-cleavage kobs at 160 uM GlcN6P (glucosamine-6-phosphate [1]): < 1e-05 s⁻¹
- self-cleavage kobs at 640 uM GlcN6P (glucosamine-6-phosphate [3]): < 1e-05 s⁻¹
- self-cleavage kobs at 2500 uM GlcN6P (glucosamine-6-phosphate [2]): < 1e-05 s⁻¹

Variant: AUAAAAGUGCCCGAACUACAGAAAUGUAGUUGACGAGGAGGACGUUUACCGAAUUUUCGGCGGAUGCCUCCAAA
- self-cleavage kobs at 160 uM GlcN6P (glucosamine-6-phosphate [1]): < 1e-05 s⁻¹
- self-cleavage kobs at 640 uM GlcN6P (glucosamine-6-phosphate [3]): < 1e-05 s⁻¹
- self-cleavage kobs at 2500 uM GlcN6P (glucosamine-6-phosphate [2]): < 1e-05 s⁻¹
- self-cleavage kobs at 10000 uM GlcN6P (glucosamine-6-phosphate [4]): < 1e-05 s⁻¹

Variant: AUAAAAGGGUCAGAACUACAGAAAUGUAGUUGACGAGGAGGAGGUUUAUCUAUUUUUCGGCGGAUGCCUCCAAA
- self-cleavage kobs at 160 uM GlcN6P (glucosamine-6-phosphate [1]): < 1e-05 s⁻¹
- self-cleavage kobs at 640 uM GlcN6P (glucosamine-6-phosphate [3]): < 1e-05 s⁻¹

Variant: AUAAAAGUGCCAGAUCUACAGAAAUGUAGUUGACGAGGAGGAGGUUUAUCGAAUUUUCGGCGGAUGCCUCCAAA
- self-cleavage kobs at 160 uM GlcN6P (glucosamine-6-phosphate [1]): < 1e-05 s⁻¹
- self-cleavage kobs at 640 uM GlcN6P (glucosamine-6-phosphate [3]): < 1e-05 s⁻¹
- self-cleavage kobs at 2500 uM GlcN6P (glucosamine-6-phosphate [2]): < 1e-05 s⁻¹

Variant: AUAAAAGGGCCAGAACUACAGAAAUGUAGUUGACGAGGAGGAGGUUUAUCGAAUUAUCGGCUGAUGCCUCCAAA
- self-cleavage kobs at 160 uM GlcN6P (glucosamine-6-phosphate [1]): < 1e-05 s⁻¹
- self-cleavage kobs at 640 uM GlcN6P (glucosamine-6-phosphate [3]): < 1e-05 s⁻¹
- self-cleavage kobs at 2500 uM GlcN6P (glucosamine-6-phosphate [2]): < 1e-05 s⁻¹

Variant: AUAAAAGAGCCAGAACUACAGAAAUGUAGUUGACGAGGAGGAGGUUUAUCGAAUUUUCGGCGAAUGCCUCCAAA
- self-cleavage kobs at 160 uM GlcN6P (glucosamine-6-phosphate [1]): < 1e-05 s⁻¹
- self-cleavage kobs at 2500 uM GlcN6P (glucosamine-6-phosphate [2]): < 1e-05 s⁻¹
- self-cleavage kobs at 10000 uM GlcN6P (glucosamine-6-phosphate [4]): < 1e-05 s⁻¹

Variant: AUAAAAGGGCGAGAACUACAGAAAUGUAGUUGACGAGGAGGAAGUUUAUCGAAUUUUCGGCGGAUGCCUCCAAA
- self-cleavage kobs at 160 uM GlcN6P (glucosamine-6-phosphate [1]): < 1e-05 s⁻¹
- self-cleavage kobs at 640 uM GlcN6P (glucosamine-6-phosphate [3]): < 1e-05 s⁻¹
- self-cleavage kobs at 2500 uM GlcN6P (glucosamine-6-phosphate [2]): < 1e-05 s⁻¹

Variant: AUAAAAGGGCCAGAAAUACAGAAAUGUAGUUGACGAGGAGGAGGUUUAUCGAAUUUUCGGCGGAUGCCUCCAAA
- self-cleavage kobs at 160 uM GlcN6P (glucosamine-6-phosphate [1]): < 1e-05 s⁻¹
- self-cleavage kobs at 640 uM GlcN6P (glucosamine-6-phosphate [3]): < 1e-05 s⁻¹
- self-cleavage kobs at 2500 uM GlcN6P (glucosamine-6-phosphate [2]): < 1e-05 s⁻¹
- self-cleavage kobs at 10000 uM GlcN6P (glucosamine-6-phosphate [4]): < 1e-05 s⁻¹

Variant: AUAAAAGGGCCAGAAGUACAGAAAUGUAGUUGACGAGGAGGAGGUUUAUCGAAUUUUCGGCGGAUGCCUCCAAA
- self-cleavage kobs at 160 uM GlcN6P (glucosamine-6-phosphate [1]): < 1e-05 s⁻¹
- self-cleavage kobs at 640 uM GlcN6P (glucosamine-6-phosphate [3]): < 1e-05 s⁻¹
- self-cleavage kobs at 2500 uM GlcN6P (glucosamine-6-phosphate [2]): < 1e-05 s⁻¹
- self-cleavage kobs at 10000 uM GlcN6P (glucosamine-6-phosphate [4]): < 1e-05 s⁻¹

Variant: AUAAAAGGGCCAGAACUACAGAAAUGUAGGUGACGAAGAGGAGGUUUAUCGAAUUUUCGGCGGAUACCGCCAAA
- self-cleavage kobs at 160 uM GlcN6P (glucosamine-6-phosphate [1]): 0.000132 ± 4.9e-05 s⁻¹
- self-cleavage kobs at 640 uM GlcN6P (glucosamine-6-phosphate [3]): 0.000166 ± 6e-05 s⁻¹

Variant: AUAAAAGGGCCAGAACUACAGAAAUGUAGUUGACAAGGAGGAGGUUUAUCGAAUUUUCGGCGGAUGCCUCCAAA
- self-cleavage kobs at 160 uM GlcN6P (glucosamine-6-phosphate [1]): < 1e-05 s⁻¹
- self-cleavage kobs at 10000 uM GlcN6P (glucosamine-6-phosphate [4]): < 1e-05 s⁻¹

Variant: AUAAAAGGGCCAGAACUACAGAAAUGUAGUUGACGAGGAGGAGGUUUAUCGAAUUUUCAGCGGAUGCCUGCAAA
- self-cleavage kobs at 160 uM GlcN6P (glucosamine-6-phosphate [1]): < 1e-05 s⁻¹

Variant: AUAAAAGUGCCCGAACUACAGAAAUGUAGUUGACGGAGAGGAGGUUUAUCGAAUUUUCGGCGGAUGCCUCCAAA
- self-cleavage kobs at 160 uM GlcN6P (glucosamine-6-phosphate [1]): < 1e-05 s⁻¹

Variant: AUAAAAGGGCCAGAACUACAGAAAUGUAGUUGACGAGGAGGAGGUUUAUCUAAUUUUCGGCGGUUGCCUCCAAA
- self-cleavage kobs at 160 uM GlcN6P (glucosamine-6-phosphate [1]): < 1e-05 s⁻¹
- self-cleavage kobs at 640 uM GlcN6P (glucosamine-6-phosphate [3]): < 1e-05 s⁻¹

Variant: AUAAAAGGGCCAGAACUACAGAAAUGUAGUUGACGAGGAGGAGGUUUAUCGAAUUUUCGGCGGAUGCCUCGAAA
- self-cleavage kobs at 160 uM GlcN6P (glucosamine-6-phosphate [1]): < 1e-05 s⁻¹
- self-cleavage kobs at 640 uM GlcN6P (glucosamine-6-phosphate [3]): < 1e-05 s⁻¹
- self-cleavage kobs at 2500 uM GlcN6P (glucosamine-6-phosphate [2]): < 1e-05 s⁻¹
- self-cleavage kobs at 10000 uM GlcN6P (glucosamine-6-phosphate [4]): < 1e-05 s⁻¹

Variant: AUAAAAGGGCCAGAACUACAGAAAUGUAGUUGACGAGGAUGAGGUUUAUCGAAUUUUCGGAGGAUGCCUCUAAA
- self-cleavage kobs at 160 uM GlcN6P (glucosamine-6-phosphate [1]): < 1e-05 s⁻¹

Variant: AUAAAAGGGCCAGAACUACAGAAAUGUAGUUGACGAGGAGGAGGUUUAUCGGAUUUUCGGCGGAUGCCUCCAAA
- self-cleavage kobs at 160 uM GlcN6P (glucosamine-6-phosphate [1]): < 1e-05 s⁻¹
- self-cleavage kobs at 640 uM GlcN6P (glucosamine-6-phosphate [3]): < 1e-05 s⁻¹
- self-cleavage kobs at 2500 uM GlcN6P (glucosamine-6-phosphate [2]): < 1e-05 s⁻¹
- self-cleavage kobs at 10000 uM GlcN6P (glucosamine-6-phosphate [4]): < 1e-05 s⁻¹
